Assay results taken from the RNAGym collection of RNA variant scans (doi:10.1101/gr.219683.116).

B1: mRNA-splicing (parent)
chain: AGUUGCUGCUGGGAGCUCCAGCACAGUGAAAUGGACAGAAGGGCAGAGCAA

Variants of: B1
Assay: exon inclusion enrichment index; higher = more inclusion; WT1 exon 5 minigene, HEK293

Variant	exon inclusion enrichment index
G5U G8U C9U G12C G13A	0.0253
G5U G8U C9U A25C G26U	0.328
G5U G8U C9U A25C G26A	0.504
G5U G8U C9U A25C G26C	0.215
G5U G8U C9U C19U A20U	0.0205
G5U G8U C9U C19U A20G	0.0101
G5U G8U C9U C19U A20C	0.0318
G5U G8U C9U A30U A31U	0.0523
G5U G8U C9U A30U A31C	0.0725
G5U G8U C9U A30U A31G	0.15
G5U G8U C9U G12A G13U	0.000463
G5U G8U C9U G12A G13C	0.0118
G5U G8U C9U G12A G13A	0.0133
G5U G8U C9U A14C G15A	0.0209
G5U G8U C9U A14C G15U	0.0169
G5U G8U C9U A14C G15C	0.0167
G5U G8U C9U G21U C22G	0.103
G5U G8U C9U G21U C22U	0.0182
G5U G8U C9U G21U C22A	0.0438
G5U G8U C9U A23G C24U	0.0193
G5U G8U C9U A23G C24G	0.604

Variant	exon inclusion enrichment index
G5U G8U C9U A23G C24A	0.532
G5U G8U C9U A20C G21C	0.0207
G5U G8U C9U A20C G21A	0.0355
G5U G8U C9U A20C G21U	0.0336
G5U G8U C9U A40G	0.0867
G5U G8U C9U A40U	0.0931
G5U G8U C9U A40C	0.385
G5U G8U C9U C24A	0.116
G5U G8U C9U C24G	0.199
G5U G8U C9U C24U	0.0331
G5U G8U C9U A31G U32C	0.678
G5U G8U C9U A31G U32A	1.22
G5U G8U C9U A31G U32G	0.0767
G5U G8U C9U C36U	0.0293
G5U G8U C9U C36A	0.0987
G5U G8U C9U C36G	0.0708
G5U G8U C9U A47U	0.115
G5U G8U C9U A47C	0.283
G5U G8U C9U A47G	0.0159
G5U G8U C9U G21A C22G	0.143
G5U G8U C9U G21A C22U	0.0464

Variant	exon inclusion enrichment index
G5U G8U C9U G21A C22A	0.0256
G5U G8U C9U A29C A30G	0.414
G5U G8U C9U A29C A30C	0.344
G5U G8U C9U A29C A30U	0.0831
G5U G8U C9U A20U G21C	0.1
G5U G8U C9U A20U G21U	0.0618
G5U G8U C9U A20U G21A	0.0475
G5U G8U C9U G15A C16U	0.0203
G5U G8U C9U G15A C16A	0.0496
G5U G8U C9U G15A C16G	0.043
G5U G8U C9U C18A C19A	0.00397
G5U G8U C9U C18A C19G	0.00406
G5U G8U C9U C18A C19U	0.0019
G5U G8U C9U A25U	0.289
G5U G8U C9U A25C	0.793
G5U G8U C9U A25G	0.618
G5U G8U C9U A35C C36A	0.0636
G5U G8U C9U A35C C36G	0.125
G5U G8U C9U A35C C36U	0.0048
G5U G8U C9U A29G A30C	0.035
G5U G8U C9U A29G A30U	0.0242

Variant	exon inclusion enrichment index
G5U G8U C9U A29G A30G	0.0374
G5U G8U C9U G26C U27C	0.621
G5U G8U C9U G26C U27A	0.135
G5U G8U C9U G26C U27G	0.648
G5U G8U C9U G21C C22U	0.151
G5U G8U C9U G21C C22G	0.384
G5U G8U C9U G21C C22A	0.108
G5U G8U C9U A20G	0.322
G5U G8U C9U A20C	0.124
G5U G8U C9U A20U	0.191
G5U G8U C9U G15C C16U	0.0902
G5U G8U C9U G15C C16A	0.0947
G5U G8U C9U G15C C16G	0.179
G5U G8U C9U C22U	0.095
G5U G8U C9U C22A	0.117
G5U G8U C9U C22G	0.183
G5U G8U C9U A37G G38U	0.0298
G5U G8U C9U A37G G38A	0.184
G5U G8U C9U A37G G38C	0.241
G5U G8U C9U C18U	0.0536
G5U G8U C9U C18G	0.139
